Our source for the pIC50 Category (FACS) values is US20230212549A1, “COMPOUNDS COMPRISING A […] LIGAND AND USE THEREOF” (priority 2021, published 2023).

To fix the notation:
B1: Hex-[Cys(3MeBn)-Nphe-Pro-Thr-Gln-Phe-Cys]-NH2 (peptide)
peptide: Hexanoyl-C[Nphe]PTQFC-NH2
modifications: linker 1-7 via mXylylene
SMILES: CCCCCC(=O)N[C@H]1CSCc2cccc(c2)CSC[C@@H](C(N)=O)NC(=O)[C@H](Cc2ccccc2)NC(=O)[C@H](CCC(N)=O)NC(=O)[C@H]([C@@H](C)O)NC(=O)[C@@H]2CCCN2C(=O)CN(Cc2ccccc2)C1=O
B2: Hex-[Cys(tMeBn(DOTA-PP))-Phe-Gln-Thr-Pro-Pro-Cys]-Asp-NH2 (peptide)
peptide: Hexanoyl-CFQTPPCD-NH2
modifications: linker 1-7 via tMeBn(DOTA-PP)
SMILES: CCCCCC(=O)N[C@H]1CSCc2cc(cc(CN3CCN(C(=O)CN4CCN(CC(=O)O)CCN(CC(=O)O)CCN(CC(=O)O)CC4)CC3)c2)CSC[C@@H](C(=O)N[C@@H](CC(=O)O)C(N)=O)NC(=O)[C@@H]2CCCN2C(=O)[C@@H]2CCCN2C(=O)[C@H]([C@@H](C)O)NC(=O)[C@H](CCC(N)=O)NC(=O)[C@H](Cc2ccccc2)NC1=O
B3: Hex-[Cys(tMeBn(DOTA-PP))-Pro-Thr-Pro-Phe-Gln-Cys]-Asp-NH2 (peptide)
peptide: Hexanoyl-CPTPFQCD-NH2
modifications: linker 1-7 via tMeBn(DOTA-PP)
SMILES: CCCCCC(=O)N[C@H]1CSCc2cc(cc(CN3CCN(C(=O)CN4CCN(CC(=O)O)CCN(CC(=O)O)CCN(CC(=O)O)CC4)CC3)c2)CSC[C@@H](C(=O)N[C@@H](CC(=O)O)C(N)=O)NC(=O)[C@H](CCC(N)=O)NC(=O)[C@H](Cc2ccccc2)NC(=O)[C@@H]2CCCN2C(=O)[C@H]([C@@H](C)O)NC(=O)[C@@H]2CCCN2C1=O
B4: N4Ac-gGlu-Nle-[Cys-(3MeBn)-Pro-Pro-Thr-Glu-Phe-Cys]-OH (peptide)
peptide: N4Ac-[γGlu][Nle]CPPTEFC-OH
modifications: linker 3-9 via mXylylene
SMILES: CCCC[C@H](NC(=O)CC[C@H](NC(=O)C(CNCCN)CNCCN)C(=O)O)C(=O)N[C@H]1CSCc2cccc(c2)CSC[C@@H](C(=O)O)NC(=O)[C@H](Cc2ccccc2)NC(=O)[C@H](CCC(=O)O)NC(=O)[C@H]([C@@H](C)O)NC(=O)[C@@H]2CCCN2C(=O)[C@@H]2CCCN2C1=O
B5: N4Ac-Ttds-Glu(AGLU′)-Nle-[Cys-(3MeBn)-Pro-Pro-Thr-Glu-Phe-Cys]-OH (peptide)
peptide: N4Ac-[Ttds(6)]E[Nle]CPPTEFC-OH
modifications: linker 4-10 via 3MeBn; not fully specified (residue 2); printed as N4Ac-Ttds-Glu(AGLU′)-Nle-[Cys-(3MeBn)-Pro-Pro-Thr-Glu-Phe-Cys]-OH
B6: Hex-[Cys(3MeBn)-Nleu-Pro-Thr-Gln-Phe-Cys]-NH2 (peptide)
peptide: Hexanoyl-C[Nleu]PTQFC-NH2
modifications: linker 1-7 via mXylylene
SMILES: CCCCCC(=O)N[C@H]1CSCc2cccc(c2)CSC[C@@H](C(N)=O)NC(=O)[C@H](Cc2ccccc2)NC(=O)[C@H](CCC(N)=O)NC(=O)[C@H]([C@@H](C)O)NC(=O)[C@@H]2CCCN2C(=O)CN(CC(C)C)C1=O
B7: Hex-[Cys(tMeBn(DOTA-PP))-Thr-Gln-Pro-Phe-Pro-Cys]-Asp-NH2 (peptide)
peptide: Hexanoyl-CTQPFPCD-NH2
modifications: linker 1-7 via tMeBn(DOTA-PP)
SMILES: CCCCCC(=O)N[C@H]1CSCc2cc(cc(CN3CCN(C(=O)CN4CCN(CC(=O)O)CCN(CC(=O)O)CCN(CC(=O)O)CC4)CC3)c2)CSC[C@@H](C(=O)N[C@@H](CC(=O)O)C(N)=O)NC(=O)[C@@H]2CCCN2C(=O)[C@H](Cc2ccccc2)NC(=O)[C@@H]2CCCN2C(=O)[C@H](CCC(N)=O)NC(=O)[C@H]([C@@H](C)O)NC1=O
B8: Hex-[Cys(3MeBn)-Nlys-Pro-Thr-Gln-Phe-Cys]-NH2 (peptide)
peptide: Hexanoyl-C[Nlys]PTQFC-NH2
modifications: linker 1-7 via mXylylene
SMILES: CCCCCC(=O)N[C@H]1CSCc2cccc(c2)CSC[C@@H](C(N)=O)NC(=O)[C@H](Cc2ccccc2)NC(=O)[C@H](CCC(N)=O)NC(=O)[C@H]([C@@H](C)O)NC(=O)[C@@H]2CCCN2C(=O)CN(CCCCN)C1=O
B9: Hex-[Cys(3MeBn)-Pro-Pro-Thr-Glu-Bip-Cys]-NH2 (peptide)
peptide: Hexanoyl-CPPTE[Bip]C-NH2
modifications: linker 1-7 via mXylylene
SMILES: CCCCCC(=O)N[C@H]1CSCc2cccc(c2)CSC[C@@H](C(N)=O)NC(=O)[C@H](Cc2ccc(-c3ccccc3)cc2)NC(=O)[C@H](CCC(=O)O)NC(=O)[C@H]([C@@H](C)O)NC(=O)[C@@H]2CCCN2C(=O)[C@@H]2CCCN2C1=O
B10: Hex-[Cys(3MeBn)-Pro-Pro-Thr-Moo-Phe-Cys]-NH2 (peptide)
peptide: Hexanoyl-CPPT[Met(O2)]FC-NH2
modifications: linker 1-7 via mXylylene
SMILES: CCCCCC(=O)N[C@H]1CSCc2cccc(c2)CSC[C@@H](C(N)=O)NC(=O)[C@H](Cc2ccccc2)NC(=O)[C@H](CCS(C)(=O)=O)NC(=O)[C@H]([C@@H](C)O)NC(=O)[C@@H]2CCCN2C(=O)[C@@H]2CCCN2C1=O
B11: Hex-[Cys(3MeBn)-Pro-Pro-Thr-Ala-Phe-Cys]-NH2 (peptide)
peptide: Hexanoyl-CPPTAFC-NH2
modifications: linker 1-7 via mXylylene
SMILES: CCCCCC(=O)N[C@H]1CSCc2cccc(c2)CSC[C@@H](C(N)=O)NC(=O)[C@H](Cc2ccccc2)NC(=O)[C@H](C)NC(=O)[C@H]([C@@H](C)O)NC(=O)[C@@H]2CCCN2C(=O)[C@@H]2CCCN2C1=O
B12: Hex-[Cys(3MeBn)-Pro-Pro-Thr-Nme-Phe-Cys]-NH2 (peptide)
peptide: Hexanoyl-CPPT[NMeE]FC-NH2
modifications: linker 1-7 via mXylylene
SMILES: CCCCCC(=O)N[C@H]1CSCc2cccc(c2)CSC[C@@H](C(N)=O)NC(=O)[C@H](Cc2ccccc2)NC(=O)[C@H](CCC(=O)O)N(C)C(=O)[C@H]([C@@H](C)O)NC(=O)[C@@H]2CCCN2C(=O)[C@@H]2CCCN2C1=O
B13: Hex-[Cys(3MeBn)-Pro-Pro-Thr-Glu-Nphe-Cys]-NH2 (peptide)
peptide: Hexanoyl-CPPTE[Nphe]C-NH2
modifications: linker 1-7 via mXylylene
SMILES: CCCCCC(=O)N[C@H]1CSCc2cccc(c2)CSC[C@@H](C(N)=O)NC(=O)CN(Cc2ccccc2)C(=O)[C@H](CCC(=O)O)NC(=O)[C@H]([C@@H](C)O)NC(=O)[C@@H]2CCCN2C(=O)[C@@H]2CCCN2C1=O
B14: Hex-[Cys(3MeBn)-Pro-Pro-Thr-Glu(NH-Apr-DOTA′)-Phe-Cys]-Asp-NH2 (peptide)
peptide: Hexanoyl-CPPTE([Apr-DOTA′])FCD-NH2
modifications: linker 1-7 via mXylylene; reading uncertain; also: printed as Hex-[Cys(3MeBn)-Pro-Pro-Thr-Glu(NH-Apr-DOTA′)-Phe-Cys]-Asp-NH2
B15: Hex-[Cys(3MeBn)-Pro-Pro-Ala-Glu-Phe-Cys]-NH2 (peptide)
peptide: Hexanoyl-CPPAEFC-NH2
modifications: linker 1-7 via mXylylene
SMILES: CCCCCC(=O)N[C@H]1CSCc2cccc(c2)CSC[C@@H](C(N)=O)NC(=O)[C@H](Cc2ccccc2)NC(=O)[C@H](CCC(=O)O)NC(=O)[C@H](C)NC(=O)[C@@H]2CCCN2C(=O)[C@@H]2CCCN2C1=O

Numbered stars: 1 amine (or outer) side, 2 acyl side, 3 side chain; on linkers, the order of the positions; unused ones are H or OH. Bridge positions count the residues as written; N and C are the ends. Square brackets hold non-standard residues; d marks the D form. Primed or numbered codes have the meaning given here. Side chains are listed from the residue outwards. * marks the point of attachment. tMeBn(DOTA-PP) = 1,3,5-trimethylbenzylidene, two thioethers to Cys, third CH2 bound to one N of piperazine whose other N bears DOTA, O=C(O)CN1CCN(CC(=O)O)CCN(CC(=O)N2CCN(Cc3cc(C[*:1])cc(C[*:2])c3)CC2)CCN(CC(=O)O)CC1; Ttds(6) = 1,13-Diamino-4,7,10-trioxatridecan-succinamic acid, O=C(CCC(=O)[*:2])NCCCOCCOCCOCCCN[*:1]; 3MeBn = 3-Methylbenzylidene (m-xylylene thioether bridge from α,α′-dibromo-m-xylene); N4Ac = 6-Carboxy-1,4,8,11-tetraazaundecane, an N4-chelator, NCCNCC(CNCCN)C(=O)*; APAc = 2-(4-(Amino)piperidin-1-yl)acetic acid, O=C(CN1CCC(N[*:1])CC1)[*:2]; 3MeBn(3) = 3-methylbenzylidene (m-xylylene), from α,α′-dibromo-m-xylene; Bip = N[C@@H](Cc1ccc(-c2ccccc2)cc1)C(=O)O; γGlu = O=C(O)[C@H](CCC(=O)[*:2])N[*:1]; Met(O2) = CS(=O)(=O)CC[C@H](N)C(=O)O; mXylylene = c1cc(C[*:1])cc(C[*:2])c1; NMeE = CN[C@@H](CCC(=O)O)C(=O)O; DOTA′ = not defined here; Nle = CCCC[C@H](N)C(=O)O; Nphe = O=C(O)CNCc1ccccc1; Apr = not defined here; Hexanoyl = CCCCCC(=O)*; Nleu = CC(C)CNCC(=O)O; Nlys = NCCCCNCC(=O)O

In the first experiment the target is human fibroblast activation protein (FAP) on WI-38 fibroblasts (human) (UniProt Q12884). Description: competitive FACS, WI-38 cells, Cy5-labeled peptide as competitor.
As to B1, the pIC50 Category (FACS) was below 6 pIC50.

Regarding B2, the pIC50 Category (FACS) was below 6 pIC50.

In the case of N4Ac-[APAc][Nle]CPPTEFC-OH (linker 3-9 via 3MeBn(3)) [N4Ac-APAc-Nle-[Cys-(3MeBn)-Pro-Pro-Thr-Glu-Phe-Cys]-OH], the pIC50 Category (FACS) is below 6 pIC50.

In turn, B3 had a pIC50 Category (FACS) below 6 pIC50.

Consider B4, for which the pIC50 Category (FACS) is below 6 pIC50.

Molecule B5 displayed a pIC50 Category (FACS) below 6 pIC50.

In turn, B6 had a pIC50 Category (FACS) below 6 pIC50.

B7 registered a pIC50 Category (FACS) below 6 pIC50.

Molecule B8 displayed a pIC50 Category (FACS) below 6 pIC50.

For another experiment, the target named is fibroblast activation protein (FAP) on FAP-expressing human WI-38 fibroblasts (human) (UniProt Q12884). Description: competitive FACS, WI-38 cells, vs Cy5 tracer m3; D = pIC50 <=6.0.
Consider B9, for which the pIC50 Category (FACS) is below 6 pIC50.

B10 came in with a pIC50 Category (FACS) below 6 pIC50.

As for B11, the pIC50 Category (FACS) is below 6 pIC50.

Regarding B12, the pIC50 Category (FACS) was below 6 pIC50.

With B13, the pIC50 Category (FACS) is below 6 pIC50.

B14 showed a pIC50 Category (FACS) below 6 pIC50.

In the case of B15, the pIC50 Category (FACS) is below 6 pIC50.
